# Assay results published in patent US20150284450A1, “COMBINATION THERAPIES USING ANTI-PSEUDOMONAS PSL AND PCRV BINDING MOLECULES” (priority 2012, published 2015).
# B1: V2L2: anti-PcrV monoclonal antibody, epitope class 4; VH SEQ ID NO: 216, VL SEQ ID NO: 217 (antibody, V domains shown)
# VH: EMQLLESGGGLVQPGGSLRLSCAASGFTFSSYAMNWVRQAPGEGLEWVSAITISGITAYYTDSVKGRFTISRDNSKNTLYLQMNSLRAGDTAVYYCAKEEFLPGTHYYYGMDVWGQGTTVTVSS
# VL: AIQMTQSPSSLSASVGDRVTITCRASQGIRNDLGWYQQKPGKAPKLVIYSASTLQSGVPSRFSGSGSGTDFTLSISSLQPDDFATYYCLQDYNYPWTFGQGTKVEIK
# modifications: V2L2 VH; V2L2 VL
# Assays:
# [1] = tested on: P. aeruginosa 6077 (exoU+); test: Rabbit red blood cell lysis inhibition assay with strain 6077; type: cell-based, Pseudomonas aeruginosa; conditions: FIG. 12F
# Experimental: Percent inhibition of cytotoxicity analysis was analysed for the parental V2L2 mAb, mAb166 (positive control) and R347 (negative control), where the antibodies were administered to cultured broncho-epithelial cell line A549 combined with log-phase P. aeruginosa strain 6077 (exoU+) at a MOI of approximately 10. A549 lysis was assayed by measuring released lactate dehydrogenase (LDH) activity and lysis in the presence of mAbs was compared to wells without mAb to determine percent inhibition. The V2L2 mAb, mAb166 (positive control) and R347 (negative control) were evaluated for their ability to prevent lysis of RBCs, where the antibodies were mixed with log-phase P. aeruginosa 6077 (exoU^+) and washed rabbit red blood cells (RBCs) and incubated for 2 hours at 37°. Intact RBCs were pelleted and the extent of lysis determined by measuring the OD405 of the cell-free supernatant. Lysis in the presence of anti-PcrV mAbs was compared to wells without mAb to determine percent inhibition.
# P. aeruginosa 6294 (O6) = test: Acute pneumonia model in mice, strain 6294; type: in vivo, Pseudomonas aeruginosa; conditions: for Overall Impression, lung histology: BALB/c mice
# Experimental: (§1) Antibodies or PBS were administered 24 hours before infection in each model. P. aeruginosa acute pneumonia, keratitis, and thermal injury infection models were performed as described (DiGiandomenico, A., et al., Proc Natl Acad Sci USA 104, 4624-4629 (2007)), with modifications. In the acute pneumonia model, BALB/c mice (The Jackson Laboratory) were infected with P. aeruginosa strains suspended in a 0.05 ml inoculum. In the thermal injury model, CF-1 mice (Charles River) received a 10% total body surface area burn with a metal brand heated to 92° C. for 10 seconds. Animals were infected subcutaneously with P. aeruginosa strain 6077 at the indicated dose. For organ burden experiments, acute pneumonia was induced in mice followed by harvesting of lungs, spleens, and kidneys 24 hours post-infection for determination of CFU.
# [2] = tested on: P. aeruginosa 6077 (O11, cytotoxic); test: Acute pneumonia model in mice, strain 6077; type: in vivo, Pseudomonas aeruginosa; conditions: IP 24 h prior to intranasal 6077 (1×10^6 CFU/animal); FIG. 13E-G
# Experimental: as §1
# [3] = tested on: P. aeruginosa 6206 (O11-ExoU+); test: Acute pneumonia model in mice, strain 6206; type: in vivo, Pseudomonas aeruginosa
# Experimental: as §1
# [4] = tested on: P. aeruginosa PA103A (O11); test: Acute pneumonia model in mice, strain PA103A; type: in vivo, Pseudomonas aeruginosa; conditions: V2L2 0.04-5 mg/kg, FIG. 13I
# Experimental: as §1
# The in vivo effect of administration of an anti-PcrV antibodies was studied in mice using an acute pneumonia model. Groups of mice were treated with either increasing concentrations of the V2L2 antibody, a positive control anti-PcrV antibody (mAb166), or a negative control (R347), as shown in FIG. 13 (A-B). Groups of mice were also treated with either increasing concentrations of the V2L2 antibody, the PcrV antibody PcrV-02, or a negative control (R347), as shown in FIG. 13 (C-D). […]
# [5] = 1.33×10^7 CFU 6294, 0.2 mg/kg (combination 0.1 mg/kg ea), Table 6A
# [6] = 1.7×10^7 CFU 6294, 0.2 mg/kg (combination 0.1 mg/kg ea), Table 6B
# [7] = 5.25×10^5 cfu 6206, single antibody: R347 2.1 mg/kg, V2L2 0.1 mg/kg, WapR-004 0.5 mg/kg, Table 5
# [8] = 9.25×10^5 CFU 6206, 0.2 mg/kg (combination 0.1 mg/kg ea), Table 7
# [9] = V2L2 0.07-5 mg/kg, intranasal 6206, FIG. 14A-B
molecule,measurement,setting,value
B1,"potency in prevention of RBC lysis, V2L2 vs. 29D2",[1],more potent in prevention of RBC lysis than the 29D2
same,protection compared to mAb166 at similar doses,"P. aeruginosa 6294 (O6); 1 mg/kg, strain 6294, FIG. 13B",significantly more potent protection than mAb166
same,Bacteria,P. aeruginosa 6294 (O6); [5],Neg-1+
same,"Hemorrhage, extent in words",P. aeruginosa 6294 (O6); [5],Extensive
same,Inflammatory Infiltrate,P. aeruginosa 6294 (O6); [5],PMN 3+
same,Involved Lung Surface Area,P. aeruginosa 6294 (O6); [5],57%
same,Bacteria,P. aeruginosa 6294 (O6); [6],Neg
same,Inflammatory Infiltrate,P. aeruginosa 6294 (O6); [6],PMN 2+
same,Involved Lung Surface Area,"P. aeruginosa 6294 (O6); 1.7×10^7 CFU 6294, 0.2 mg/kg, Table 6B",30%
same,protection against additional strains,"P. aeruginosa 6294 (O6); 6294, V2L2 0.04-5 mg/kg, FIG. 13I",protects against additional Pseudomonas strains
same,"Overall Impression, lung histology",P. aeruginosa 6294 (O6); [5],Broncho interstitial pneumonia
same,"Overall Impression, lung histology",P. aeruginosa 6294 (O6); [6],Broncho interstitial pneumonia
same,effect on survival,"P. aeruginosa 6294 (O6); increasing doses of V2L2 24 h before infection, out to 168 hours post-infection, FIG. 13",dose-dependent effect on improved survival
same,protection in vivo (survival),[2],provides protection in vivo
same,reduction in organ CFU compared to mAb166 at similar doses,"[3]; 1 mg/kg, lung, FIG. 14B",significantly greater reduction in organ CFU than mAb166
same,"organ burden / tissue clearance (lung, spleen, kidney CFU)","[3]; 5.25×10^5 cfu 6206, V2L2 0.1 mg/kg, W4-RAD 0.5 mg/kg, combination, 24 h post infection, FIG. 15",effective in lowering organ burden
same,Inflammatory Infiltrate,[3]; [7],PMN 3+
same,Involved Lung Surface Area,[3]; [7],55%
same,"Overall Impression, lung histology",[3]; [7],Broncho interstitial pneumonia
same,Inflammatory Infiltrate,[3]; [8],PMN 2-3+
same,Involved Lung Surface Area,[3]; [8],40%
same,"survival, in words","[3]; 6206, Bs3-V2L2 0.28 mg/kg, V2L2 0.2 mg/kg 24 h before infection, monitored 120 hours, FIG. 21A","survived, along with those which received the V2L2 control"
same,"Overall Impression, lung histology","[3]; BALB/c mice, 9.25×10^5 CFU 6206, 0.2 mg/kg (combination 0.1 mg/kg ea), Table 7",Broncho interstitial pneumonia
same,clearance in the kidney,[3]; [9],little effect on clearance in the kidney
same,dissemination to lung and spleen,[3]; [9],greatly reduced dissemination to both the lung and spleen in a dose-dependent manner
same,protection against additional strains,[4],protects against additional Pseudomonas strains
